We go through three molecules from PMC5811392 (Biochemistry, 2018).

Test [1] deals with T1, Human p53 DNA-binding domain (residues 88-312) (human, UniProt P04637 88-312). As to the kind of experiment: NMR titration.
Test [2] concerns the target T1, Human p53 DNA-binding domain (residues …). The test can be described thus: ITC. (In general: In ITC the heat of successive injections is recorded.)
Test [3] shares this target. The test can be described thus: fluorescence polarisation.

T1 sequence (P04637 88-312): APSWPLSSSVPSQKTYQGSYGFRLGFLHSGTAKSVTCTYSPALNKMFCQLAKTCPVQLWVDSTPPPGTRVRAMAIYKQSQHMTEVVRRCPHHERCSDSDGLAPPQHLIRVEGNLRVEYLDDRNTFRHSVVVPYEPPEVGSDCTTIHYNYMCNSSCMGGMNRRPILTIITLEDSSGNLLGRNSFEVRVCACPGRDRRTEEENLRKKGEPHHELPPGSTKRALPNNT

B1: GB1-p23 (110-160) (domain or fragment, human, UniProt Q15185 110-160, looked up)
chain: EDDSDEDMSNFDRFSEMMNNMGGDEDVDLPEVDGADDDSQDSDDEKMPDLE
Consider B1, for which, in test [1], the Kd (as a rule, the concentration at which binding is half-saturated) worked out at 6 ± 4 µM.

B2: full length p23 (residues 1-160) (natural protein, human, UniProt Q15185 1-160, looked up)
chain: MQPASAKWYDRRDYVFIEFCVEDSKDVNVNFEKSKLTFSCLGGSDNFKHLNEIDLFHCIDPNDSKHKRTDRSILCCLRKGESGQSWPRLTKERAKLNWLSVDFNNWKDWEDDSDEDMSNFDRFSEMMNNMGGDEDVDLPEVDGADDDSQDSDDEKMPDLE
As to B2, the Kd in test [2] is 7 ± 2 µM; in test [3] it was 21 ± 7 µM; in test [1], 8 ± 2 µM. For the same molecule, the dH in test [2] is -7.95 ± 418 kJ/mol.

FDRFSEMMNNMGGDEDVDLPEVDGADDDSQDSDDEKMPDLE (domain or fragment, human, UniProt Q15185 120-160, looked up) [GB1-p23 (120-160)] showed a Kd in test [2] of 24 ± 15 µM.
